Laboratory results as given in patent publication US20120316071A1 (published 2012).
One block for each binder: values may come before it.

Tests used:
[1] = biological target: T1, rHuman Erythropoietin R/Fc Chimera, CF (R&D Systems Cat#963-ER) (human, UniProt P19235 25-250); assay: Multispot ECL (MSD) binding screen, antigen spotted on plate; hit = signal/blank >= 4
T1 construct: Bought Fc chimera; also called Epo R/Fc chimera; EPO R/Fc; Fc part of the bought chimera not given
T1 sequence (looked up): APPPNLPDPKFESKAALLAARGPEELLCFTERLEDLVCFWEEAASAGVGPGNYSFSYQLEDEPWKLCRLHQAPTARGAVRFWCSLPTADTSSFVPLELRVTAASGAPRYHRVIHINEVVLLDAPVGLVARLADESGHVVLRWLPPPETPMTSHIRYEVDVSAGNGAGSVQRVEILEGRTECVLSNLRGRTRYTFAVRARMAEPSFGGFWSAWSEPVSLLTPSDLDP

[2] = biological target: T2, rHuman CD44/Fc Chimera, CF (R&D Systems Cat#3660-CD) (human, UniProt P16070 21-220); assay: ECL multispot (MSD) assay, antigen spotted on plate, Fab at 0.1 µM
T2 construct: Bought recombinant protein; Fc part of the bought chimera not given

[3] = biological target: T3, rHuman P-Cadherin/Fc Chimera, CF (R&D Systems Cat#861-PC) (human, UniProt P22223 108-654); assay: as above
T3 construct: Bought recombinant protein; Fc part of the bought chimera not given

[4] = biological target: T4, rHuman HGF R/c-MET/Fc Chimera, CF (R&D Systems Cat#358-MT/CF) (human, UniProt P08581 25-932); assay: as above
T4 construct: Bought recombinant protein; also called HGF R/Fc; hepatocyte growth factor receptor; Fc part of the bought chimera not given

[5] = biological target: T5, rHuman ErbB2/Fc Chimera, CF (R&D Systems Cat#1129-ER) (human, UniProt P04626 23-652); assay: as above
T5 construct: Bought recombinant protein; also called human epidermal growth factor 2 receptor; Fc part of the bought chimera not given

[6] = biological target: T6, rHuman Erythropoietin R/Fc Chimera, CF (R&D Systems Cat#963-ER) (human, UniProt P19235 25-250); assay: as above
T6 construct: Bought recombinant protein; also called EPO R; EPO R/Fc; Fc part of the bought chimera not given
T6 sequence (looked up): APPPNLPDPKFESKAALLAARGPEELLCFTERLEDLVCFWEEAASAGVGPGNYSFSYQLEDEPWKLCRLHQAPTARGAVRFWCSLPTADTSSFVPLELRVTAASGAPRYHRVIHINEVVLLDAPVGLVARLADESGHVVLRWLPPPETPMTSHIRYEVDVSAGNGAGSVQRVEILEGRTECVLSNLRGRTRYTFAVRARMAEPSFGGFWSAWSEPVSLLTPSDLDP

[7] = biological target: T7, Recombinant Human DLL4 (R&D Systems Cat#1506-D4/CF) (human, UniProt Q9NR61 27-524); assay: as above
T7 construct: Bought recombinant protein; also called delta-like protein 4; rHuman DLL4

[8] = biological target: T8, rHuman EGF R/Fc Chimera, CF (R&D Systems Cat#344-ER) (human, UniProt P00533 25-645); assay: as above
T8 construct: Bought recombinant protein; also called epidermal growth factor receptor; Fc part of the bought chimera not given

[9] = biological target: T9, rHuman Notch-1/Fc Chimera, CF (R&D Systems Cat#3647-TK) (human, UniProt P46531 19-526); assay: as above
T9 construct: Bought recombinant protein; Fc part of the bought chimera not given

[10] = biological target: T10, rHuman IGF-1 sR, CF (R&D Systems Cat#391-GR) (human, UniProt P08069 31-932); assay: as above
T10 construct: Bought recombinant soluble receptor; also called insulin-like growth factor-1 soluble receptor

[11] = biological target: T2, rHuman CD44/Fc Chimera, CF (R&D Systems …); assay: ECL multispot (MSD) assay, antigen spotted on plate, Fab at 0.01 µM
[12] = biological target: T3, rHuman P-Cadherin/Fc Chimera, CF (R&D …); assay: as above
[13] = biological target: T4, rHuman HGF R/c-MET/Fc Chimera, CF (R&D …); assay: as above
[14] = biological target: T5, rHuman ErbB2/Fc Chimera, CF (R&D …); assay: as above
[15] = biological target: T6, rHuman Erythropoietin R/Fc Chimera, CF …; assay: as above
[16] = biological target: T7, Recombinant Human DLL4 (R&D Systems …); assay: as above
[17] = biological target: T8, rHuman EGF R/Fc Chimera, CF (R&D …); assay: as above
[18] = biological target: T9, rHuman Notch-1/Fc Chimera, CF (R&D …); assay: as above
[19] = biological target: T10, rHuman IGF-1 sR, CF (R&D Systems …); assay: as above
[20] = biological target: T11, rHuman Notch-1/Fc Chimera, CF (R&D Systems Cat#3647-TK) (human, UniProt P46531 19-526); assay: ECL multispot (MSD), antigen spotted, 10 nM Fab; blank spot of this row 248
T11 construct: Bought recombinant protein; Fc part of the bought chimera not given

[21] = biological target: T12, rHuman HGF R/c-MET/Fc Chimera, CF (R&D Systems Cat#358-MT/CF) (human, UniProt P08581 25-932); assay: as above
T12 construct: Bought recombinant protein; also called HGF R/Fc; hepatocyte growth factor receptor; Fc part of the bought chimera not given

[22] = biological target: T13, rHuman IGF-1 sR, (IGF-1 sR), CF (R&D Systems Cat#391-GR) (human, UniProt P08069 31-932); assay: as above
T13 construct: Bought recombinant soluble receptor; also called insulin-like growth factor-1 soluble receptor

[23] = biological target: T14, rHuman P-Cadherin/Fc Chimera, CF (R&D Systems Cat#861-PC) (human, UniProt P22223 108-654); assay: as above
T14 construct: Bought recombinant protein; Fc part of the bought chimera not given

[24] = biological target: T15, rHuman Erythropoietin R/Fc Chimera, CF (R&D Systems Cat#963-ER) (human, UniProt P19235 25-250); assay: as above
T15 construct: Bought recombinant protein; also called EPO R; EPO R/Fc; Fc part of the bought chimera not given
T15 sequence (looked up): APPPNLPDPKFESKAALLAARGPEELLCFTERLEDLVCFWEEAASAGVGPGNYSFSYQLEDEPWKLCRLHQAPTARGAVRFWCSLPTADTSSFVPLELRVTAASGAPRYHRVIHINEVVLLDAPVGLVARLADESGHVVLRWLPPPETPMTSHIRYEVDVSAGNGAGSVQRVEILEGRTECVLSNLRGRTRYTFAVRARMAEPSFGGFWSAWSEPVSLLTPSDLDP

[25] = biological target: T16, rHuman EGF R/Fc Chimera, CF (R&D Systems Cat#344-ER) (human, UniProt P00533 25-645); assay: as above
T16 construct: Bought recombinant protein; also called epidermal growth factor receptor; Fc part of the bought chimera not given

[26] = biological target: T17, rHuman CD44/Fc Chimera, CF (R&D Systems Cat#3660-CD) (human, UniProt P16070 21-220); assay: as above
T17 construct: Bought recombinant protein; Fc part of the bought chimera not given

[27] = biological target: T18, rHuman ErbB2/Fc Chimera, CF (R&D Systems Cat#1129-ER) (human, UniProt P04626 23-652); assay: as above
T18 construct: Bought recombinant protein; also called human epidermal growth factor 2 receptor; Fc part of the bought chimera not given

- binding result [1]: binds
B1: Fab VH1-46_IGHD7-27*01_IGHJ2*01 & A27_IGKJ1*01 (Fab, V domains shown)
VH: QVQLVQSGAEVKKPGASVKVSCKASGYTFTSYYMHWVRQAPGQGLEWMGIINPSGGSTSYAQKFQGRVTMTRDTSTSTVYMELSSLRSEDTAVYYCARANWGYWYFDLWGRGTLVTVSS
VL: not shown
notes: Fab; expressed in E. coli from Plasmid A (CH1, His6 and Flag tags) and Plasmid C (kappa CL)

- ECL signal/noise ratio [2]: 1.3
- ECL signal/noise ratio [3]: 1
- ECL signal/noise ratio [4]: 0.5
- ECL signal/noise ratio [5]: 0.8
- ECL signal/noise ratio [6]: 1.3
- ECL signal/noise ratio [7]: 71.6
- ECL signal/noise ratio [8]: 0.9
- ECL signal/noise ratio [9]: 1.4
- ECL signal/noise ratio [10]: 1.3
- ECL signal/noise ratio [11]: 0.9
- ECL signal/noise ratio [12]: 0.2
- ECL signal/noise ratio [13]: 0.5
- ECL signal/noise ratio [14]: 1
- ECL signal/noise ratio [15]: 0.8
- ECL signal/noise ratio [16]: 10
- ECL signal/noise ratio [17]: 0.8
- ECL signal/noise ratio [18]: 0.6
- ECL signal/noise ratio [19]: 0.5
B2: Fab VH1-46_IGHD6-6*01_IGHJ1*01 S102A & L6_IGKJ1*01 (Fab, V domains shown)
VH: QVQLVQSGAEVKKPGASVKVSCKASGYTFTSYYMHWVRQAPGQGLEWMGIINPSGGSTSYAQKFQGRVTMTRDTSTSTVYMELSSLRSEDTAVYYCAREEYASSSAEYFQHWGQGTLVTVSS
VL: not shown
notes: Tested as a Fab expressed in E. coli (Plasmid A: CH1, His6 and Flag tags; Plasmid C: kappa CL)

- ECL signal [20]: 302
- ECL signal [21]: 268
- ECL signal [22]: 191
- ECL signal [23]: 243
- ECL signal [24]: 329
- ECL signal [25]: 272
- ECL signal [26]: 173
- ECL signal [27]: 302
B3: Fab VH1-46_IGHD6-6*01_IGHJ1*01 S102A/S103P/S104F G55D & L6_IGKJ1*01 (Fab, V domains shown)
VH: QVQLVQSGAEVKKPGASVKVSCKASGYTFTSYYMHWVRQAPGQGLEWMGIINPSDGSTSYAQKFQGRVTMTRDTSTSTVYMELSSLRSEDTAVYYCAREEYAPFSAEYFQHWGQGTLVTVSS
VL: not shown
notes: Tested as Fab (CH1 with His6 and Flag tags, kappa CL); also called APF G55D
